Source: US6514747B2 (UT-Battelle, LLC, priority 1993, dated 2003)

What was measured:
murine MSH-R = target: T1, murine MSH-R (Mus musculus, UniProt Q01727); test: α-MSH activation of murine MSH-R in stably transfected 293 cells (adenylyl cyclase); format: cell-based; conditions: agouti 0.7 nM
T1 construct: expressed in transfected cells; host or cells: 293 cells, stably transfected

3T3-L1 adipocytes = test: [Ca2+]i in 3T3-L1 adipocytes (fura 2); format: cell-based; conditions: for [Ca2+]i Increase over Baseline: 400 s, n = 8
Method: The spontaneously fusing L6 skeletal muscle cells [American Type Culture Collection (ATCC), Bethesda, MD] were grown in 75-cm^2 flasks in Dulbecco's modified Eagle's medium with 10% glucose (DMEM) supplemented with 5% fetal bovine serum (FBS, vol/vol), 5% calf serum supplemented iron enriched (CS, vol/vol, and antibiotics (50 U penicillin/ml and 5 μg of streptomycin/ml). Cultures were maintained in continuous passages (<20) by trypsinization (0.05% trypsin) of semiconfluent nonfused cells. A7r5 vascular smooth muscle cells (ATCC) were grown in the same conditions as for L6 cells. 3T3-L1 cells (ATCC) were grown in 100-mm dishes in DMEM containing 10% FBS and antibiotics. For differentiation of fibroblasts into adipocytes, confluent cells were incubated in DMEM-FBS containing 0.5 mM 3-isobutyl-1-methylxanthine (IBMX; Sigma, St. Louis, Mo.) and 0.25 μM dexamethasone (Dex; Sigma) for 60 h. IBMX and Dex were then removed, and cells remained in DMEM-FBS with 250 μg/ml geneticin and compared with nontransfected HEK-293 cells. All types of cells were maintained at 37° C. in an atmosphere containing 5% CO2 and 100% humidity. Cell culture reagents, FBS, CS, and trypsin-EDTA were obtained from GIBCO/BRL (Grand Island, N.Y.).
Viruses incorporating this vector were produced by standard methods (Lu et al., 1994). Spodoptera frugiperda cells (Sf-9) were propagated in Grace's supplemented medium containing 10% CS and 0.1% Pluronic F68 and used to produce […] viral stocks. Fifteen-liter scale production runs of murine or human agouti were produced using T. ni cells adapted to suspension (JRH Biosciences, Woodland, Calif.). T ni cells were infected 24 h postseeding at a density of 10^6 cells/ml, and conditioned media from infected cells were harvested 48 h after infection filtered through a Whatman 3 filter and purified as recently described (Willard et al., 1995).
[Ca^2+]i was measured in L6, A7r5, and HEK-293 cells (Zemel et al., 1995) as previously described and in 3T3-L1 cells as described by Klip and Ramlal (1987). Monolayers of nonfused L6 cells and confluent A7r5 cells after 14-16 h of starvation in a serum-free culture medium were rinsed with Hanks' balanced salt solution (HBSS), detached by incubation in 2 ml trypsin (0.05%) for 2-3 min at 37° C., and released by pipetting without trypsinization. Cells were harvested by centrifugation at 50 g and resuspended in 1 ml HBSS at a density of ˜10^6 cells/ml. […] [Ca^2+]i levels were then measured fluorometrically in suspensions using dual excitation (340 and 380 nm)-single emission (510 nm) fluorometry as previously described (Zemel et al., 1995). [Ca^2+]i was then calculated by the computer in the fluorometer with the equation of Grynkiewicz et al. (1985). […]

T1 sequence (Q01727 whole entry): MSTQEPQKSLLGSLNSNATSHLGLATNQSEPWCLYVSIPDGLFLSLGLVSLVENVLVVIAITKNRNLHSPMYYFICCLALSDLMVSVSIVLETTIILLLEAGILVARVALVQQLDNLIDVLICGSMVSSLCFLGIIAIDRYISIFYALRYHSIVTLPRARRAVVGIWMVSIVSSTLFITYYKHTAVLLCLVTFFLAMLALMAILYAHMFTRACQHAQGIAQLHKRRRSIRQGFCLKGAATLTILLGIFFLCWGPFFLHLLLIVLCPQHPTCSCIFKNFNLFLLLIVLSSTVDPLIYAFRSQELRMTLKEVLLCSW

B1: agouti: recombinant mouse agouti protein (131 amino acids, SEQ ID NO:2) produced with the baculovirus expression system in T. ni cells (protein, listed as Mus musculus)
chain: MDVTRLLLATLVSFLCFFTVHSHLALEETLGDDRSLRSNSSMNSLDFSSVSIVALNKKSKKISRKEAEKRKRSSKKKASMKKVARPPPPSPCVATRDSCKPPAPACCDPCASCQCRFFGSACTCRVLNPNC
- maximally induced activity of the receptor (murine MSH-R): did not alter
- [Ca2+]i Increase over Baseline (3T3-L1 adipocytes; 5 nM Agouti): 73 ± 6 nM
- [Ca2+]i Increase over Baseline (3T3-L1 adipocytes; 25 nM Agouti): 33 ± 6 nM
- [Ca2+]i increase over baseline (plateau) (3T3-L1 adipocytes; 50 nM agouti, 400 s after agouti addition): 73 ± 6 nM
- [Ca2+]i increase (3T3-L1 adipocytes; 50 nM agouti, after 200 s): 44 ± 4 nM
